Assay results published in patent US20240398963A1 (priority 2021, published 2024).

Type: physicochemical
Conditions: 10 mM PBS buffer (pH=7.4), 37° C., 100 rpm shaker; free drug by HPLC, average release per day
Procedure: The drug release and stability experiments were run using the test compounds. About 2.5±1.0 mg/mL (with regard to conjugate) solution of each test compound was prepared with 10 mM PBS buffer (pH=7.4) in Millipore Amicon® Ultra-0.5 ml 30 k Ultrafiltration centrifuge tube. The solution was kept swelling for 1 h at room temperature and then placed in a shaker at 100 rpm, 37° C. for continuous experiment. At the same time point of each day, samples were centrifuged at 10000 rpm for 1 h. The aliquot was transferred to HPLC vial for analysis. An 0.4 mL of 10 mM PBS buffer was added into the centrifuge tube and continue the experiment.
For the HPLC analysis at each time point, the peak areas of all relevant peaks from the chromatograms were retrieved and the concentration of free drug was calculated. Average release of free drug was calculated based on the sum of free drug and numbers of experiment days. The computing equation is as below.
The sample degradation rate was calculated based on the concentration and degree of substitution (NMR) for conjugated drug with regard to the initial starting point of the experiment (at t=0). The computing equation is as below.

Substance	Release rate
Conjugate of CS and 2-((8S,9S,10R,11S,13S,14S,17R)-11,17-dihydroxy-10,13-dimethyl-3-oxo-2,3,6,7,8,9,10,11,12,13,14,15,16,17-tetradecahydro-1H-cyclopenta[a]phenanthren-17-yl)-2-oxoethyl 4-aminobutanoate [Example 39]	0.71 %/day
Conjugate of CS and 2-((8S,9S,10R,13S,14S,17R)-17-hydroxy-10,13-dimethyl-3,11-dioxo-2,3,6,7,8,9,10,11,12,13,14,15,16,17-tetradecahydro-1H-cyclopenta[a]phenanthren-17-yl)-2-oxoethyl 4-aminobutanoate [Example 41]	1.79 %/day
Conjugate of CS and 2-((8S,9S,10R,13S,14S,17R)-17-hydroxy-10,13-dimethyl-3,11-dioxo-6,7,8,9,10,11,12,13,14,15,16,17-dodecahydro-3H-cyclopenta[a]phenanthren-17-yl)-2-oxoethyl 4-aminobutanoate [Example 35]	1.44 %/day
Conjugate of CS and 4-aminobutyl (2-((6S,8S,9S,10R,11S,13S,14S,17R)-11,17-dihydroxy-6,10,13-trimethyl-3-oxo-6,7,8,9,10,11,12,13,14,15,16,17-dodecahydro-3H-cyclopenta[a]phenanthren-17-yl)-2-oxoethyl) carbonate [Example 69]	4.62 %/day
Conjugate of CS and 4-aminobutyl (2-((8S,9R,10S,11S,13S,14S,16R,17R)-9-fluoro-11,17-dihydroxy-10,13,16-trimethyl-3-oxo-6,7,8,9,10,11,12,13,14,15,16,17-dodecahydro-3H-cyclopenta[a]phenanthren-17-yl)-2-oxoethyl) carbonate [Example 71]	1.55 %/day
Conjugate of CS and 4-aminobutyl (2-((8S,9R,10S,11S,13S,14S,16S,17R)-9-fluoro-11,17-dihydroxy-10,13,16-trimethyl-3-oxo-6,7,8,9,10,11,12,13,14,15,16,17-dodecahydro-3H-cyclopenta[a]phenanthren-17-yl)-2-oxoethyl) carbonate [Example 73]	13.44 %/day
Conjugate of CS and 4-aminobutyl (2-((8S,9S,10R,11S,13S,14S,17R)-11,17-dihydroxy-10,13-dimethyl-3-oxo-2,3,6,7,8,9,10,11,12,13,14,15,16,17-tetradecahydro-1H-cyclopenta[a]phenanthren-17-yl)-2-oxoethyl) carbonate [Example 65]	7.52 %/day
Conjugate of CS and 4-aminobutyl (2-((8S,9S,10R,11S,13S,14S,17R)-11,17-dihydroxy-10,13-dimethyl-3-oxo-6,7,8,9,10,11,12,13,14,15,16,17-dodecahydro-3H-cyclopenta[a]phenanthren-17-yl)-2-oxoethyl) carbonate [Example 63]	0.05 %/day
Conjugate of CS and 4-aminobutyl (2-((8S,9S,10R,13S,14S,17R)-17-hydroxy-10,13-dimethyl-3,11-dioxo-2,3,6,7,8,9,10,11,12,13,14,15,16,17-tetradecahydro-1H-cyclopenta[a]phenanthren-17-yl)-2-oxoethyl) carbonate [Example 67]	5.91 %/day
Conjugate of CS and 4-aminobutyl (2-((8S,9S,10R,13S,14S,17R)-17-hydroxy-10,13-dimethyl-3,11-dioxo-6,7,8,9,10,11,12,13,14,15,16,17-dodecahydro-3H-cyclopenta[a]phenanthren-17-yl)-2-oxoethyl) carbonate [Example 61]	7.26 %/day
Conjugate of HA and 2-((2S,6αS,6βR,7S,8αS,8βS,11αR,12αS,12βS)-2,6β-difluoro-7-hydroxy-6α,8α,10,10-tetramethyl-4-oxo-1,2,4,6α,6β,7,8,8α,11α,12,12α,12β-dodecahydro-8βH-naphtho[2′,1′:4,5]indeno[1,2-d][1,3]dioxol-8β-yl)-2-oxoethyl 6-aminohexanoate [Example 23]	1.01 %/day
Conjugate of HA and 2-((6S,8S,9S,10R,11S,13S,14S,17R)-11,17-dihydroxy-6,10,13-trimethyl-3-oxo-6,7,8,9,10,11,12,13,14,15,16,17-dodecahydro-3H-cyclopenta[a]phenanthren-17-yl)-2-oxoethyl 4-aminobutanoate [Example 42]	2.88 %/day
Conjugate of HA and 2-((6S,8S,9S,10R,11S,13S,14S,17R)-11,17-dihydroxy-6,10,13-trimethyl-3-oxo-6,7,8,9,10,11,12,13,14,15,16,17-dodecahydro-3H-cyclopenta[a]phenanthren-17-yl)-2-oxoethyl 5-aminopentanoate [Example 78]	8.92 %/day
Conjugate of HA and 2-((6S,8S,9S,10R,11S,13S,14S,17R)-11,17-dihydroxy-6,10,13-trimethyl-3-oxo-6,7,8,9,10,11,12,13,14,15,16,17-dodecahydro-3H-cyclopenta[a]phenanthren-17-yl)-2-oxoethyl 6-aminohexanoate [Example 82]	2.30 %/day
Conjugate of HA and 2-((6αS,6βR,7S,8αS,8βS,11αR,12αS,12βS)-6β-fluoro-7-hydroxy-6α,8α,10,10-tetramethyl-4-oxo-1,2,4,6α,6β,7,8,8α,11α,12,12α,12β-dodecahydro-8βH-naphtho[2′,1′:4,5]indeno[1,2-d][1,3]dioxol-8β-yl)-2-oxoethyl 2,5-diazabicyclo[2.2.1]heptane-2-carboxylate [Example 58]	0.25 %/day
Conjugate of HA and 2-((6αS,6βR,7S,8αS,8βS,11αR,12αS,12βS)-6β-fluoro-7-hydroxy-6α,8α,10,10-tetramethyl-4-oxo-1,2,4,6α,6β,7,8,8α,11α,12,12α,12β-dodecahydro-8βH-naphtho[2′,1′:4,5]indeno[1,2-d][1,3]dioxol-8β-yl)-2-oxoethyl glycylglycylglycinate [Example 19]	17.57 %/day
Conjugate of HA and 2-((8S,9R,10S,11S,13S,14S,16R,17R)-9-fluoro-11,17-dihydroxy-10,13,16-trimethyl-3-oxo-6,7,8,9,10,11,12,13,14,15,16,17-dodecahydro-3H-cyclopenta[a]phenanthren-17-yl)-2-oxoethyl 4-aminobutanoate [Example 44]	1.12 %/day
Conjugate of HA and 2-((8S,9R,10S,11S,13S,14S,16R,17R)-9-fluoro-11,17-dihydroxy-10,13,16-trimethyl-3-oxo-6,7,8,9,10,11,12,13,14,15,16,17-dodecahydro-3H-cyclopenta[a]phenanthren-17-yl)-2-oxoethyl 5-aminopentanoate [Example 79]	4.42 %/day
Conjugate of HA and 2-((8S,9R,10S,11S,13S,14S,16R,17R)-9-fluoro-11,17-dihydroxy-10,13,16-trimethyl-3-oxo-6,7,8,9,10,11,12,13,14,15,16,17-dodecahydro-3H-cyclopenta[a]phenanthren-17-yl)-2-oxoethyl 6-aminohexanoate [Example 83]	2.15 %/day
Conjugate of HA and 2-((8S,9R,10S,11S,13S,14S,16S,17R)-9-fluoro-11,17-dihydroxy-10,13,16-trimethyl-3-oxo-6,7,8,9,10,11,12,13,14,15,16,17-dodecahydro-3H-cyclopenta[a]phenanthren-17-yl)-2-oxoethyl 4-aminobutanoate [Example 46]	2.95 %/day
Conjugate of HA and 2-((8S,9R,10S,11S,13S,14S,16S,17R)-9-fluoro-11,17-dihydroxy-10,13,16-trimethyl-3-oxo-6,7,8,9,10,11,12,13,14,15,16,17-dodecahydro-3H-cyclopenta[a]phenanthren-17-yl)-2-oxoethyl 6-aminohexanoate [Example 84]	3.73 %/day
Conjugate of HA and 2-((8S,9S,10R,11S,13S,14S,17R)-11,17-dihydroxy-10,13-dimethyl-3-oxo-2,3,6,7,8,9,10,11,12,13,14,15,16,17-tetradecahydro-1H-cyclopenta[a]phenanthren-17-yl)-2-oxoethyl 4-aminobutanoate [Example 38]	1.71 %/day
Conjugate of HA and 2-((8S,9S,10R,11S,13S,14S,17R)-11,17-dihydroxy-10,13-dimethyl-3-oxo-2,3,6,7,8,9,10,11,12,13,14,15,16,17-tetradecahydro-1H-cyclopenta[a]phenanthren-17-yl)-2-oxoethyl 5-aminopentanoate [Example 76]	2.66 %/day
Conjugate of HA and 2-((8S,9S,10R,11S,13S,14S,17R)-11,17-dihydroxy-10,13-dimethyl-3-oxo-2,3,6,7,8,9,10,11,12,13,14,15,16,17-tetradecahydro-1H-cyclopenta[a]phenanthren-17-yl)-2-oxoethyl 6-aminohexanoate [Example 93]	7.67 %/day
Conjugate of HA and 2-((8S,9S,10R,11S,13S,14S,17R)-11,17-dihydroxy-10,13-dimethyl-3-oxo-6,7,8,9,10,11,12,13,14,15,16,17-dodecahydro-3H-cyclopenta[a]phenanthren-17-yl)-2-oxoethyl 4-aminobutanoate [Example 36]	2.89 %/day
